According to the supplement of paper PMC10065799, “High-throughput profiling of sequence recognition by tyrosine kinases and SH2 domains using bacterial peptide display” (eLife, 2023):

What was measured:
[1] = system: AncSZ; assay: phosphorylation enrichment, bacterial display (enrichment ratio); higher = better substrate or ligand; peptides without Tyr show the background
[2] = target: FGFR1 (UniProt P11362); assay: as above
[3] = target: Jak2 (UniProt O60674); assay: as above
[4] = system: c-Abl (mouse); assay: as above
[5] = target: Fyn (UniProt P06241); assay: as above
Fyn, sequence (P06241 whole entry, looked up): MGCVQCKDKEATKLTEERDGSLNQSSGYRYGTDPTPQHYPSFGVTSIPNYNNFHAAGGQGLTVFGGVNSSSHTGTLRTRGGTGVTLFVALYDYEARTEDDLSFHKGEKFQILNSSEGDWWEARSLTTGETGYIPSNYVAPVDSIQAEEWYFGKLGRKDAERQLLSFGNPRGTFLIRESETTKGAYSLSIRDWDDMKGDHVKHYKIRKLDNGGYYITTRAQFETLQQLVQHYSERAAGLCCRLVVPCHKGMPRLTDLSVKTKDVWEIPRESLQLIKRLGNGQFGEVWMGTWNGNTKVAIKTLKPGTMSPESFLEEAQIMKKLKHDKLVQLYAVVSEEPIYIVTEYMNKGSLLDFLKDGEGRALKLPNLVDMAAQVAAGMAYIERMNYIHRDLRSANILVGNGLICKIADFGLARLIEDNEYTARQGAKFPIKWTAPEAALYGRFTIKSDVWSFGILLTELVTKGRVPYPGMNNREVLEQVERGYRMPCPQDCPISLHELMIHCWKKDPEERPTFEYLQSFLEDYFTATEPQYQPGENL

[6] = system: c-Src; assay: as above
[7] = target: EPHB2 (UniProt P29323); assay: as above
EPHB2, sequence (P29323 whole entry, looked up): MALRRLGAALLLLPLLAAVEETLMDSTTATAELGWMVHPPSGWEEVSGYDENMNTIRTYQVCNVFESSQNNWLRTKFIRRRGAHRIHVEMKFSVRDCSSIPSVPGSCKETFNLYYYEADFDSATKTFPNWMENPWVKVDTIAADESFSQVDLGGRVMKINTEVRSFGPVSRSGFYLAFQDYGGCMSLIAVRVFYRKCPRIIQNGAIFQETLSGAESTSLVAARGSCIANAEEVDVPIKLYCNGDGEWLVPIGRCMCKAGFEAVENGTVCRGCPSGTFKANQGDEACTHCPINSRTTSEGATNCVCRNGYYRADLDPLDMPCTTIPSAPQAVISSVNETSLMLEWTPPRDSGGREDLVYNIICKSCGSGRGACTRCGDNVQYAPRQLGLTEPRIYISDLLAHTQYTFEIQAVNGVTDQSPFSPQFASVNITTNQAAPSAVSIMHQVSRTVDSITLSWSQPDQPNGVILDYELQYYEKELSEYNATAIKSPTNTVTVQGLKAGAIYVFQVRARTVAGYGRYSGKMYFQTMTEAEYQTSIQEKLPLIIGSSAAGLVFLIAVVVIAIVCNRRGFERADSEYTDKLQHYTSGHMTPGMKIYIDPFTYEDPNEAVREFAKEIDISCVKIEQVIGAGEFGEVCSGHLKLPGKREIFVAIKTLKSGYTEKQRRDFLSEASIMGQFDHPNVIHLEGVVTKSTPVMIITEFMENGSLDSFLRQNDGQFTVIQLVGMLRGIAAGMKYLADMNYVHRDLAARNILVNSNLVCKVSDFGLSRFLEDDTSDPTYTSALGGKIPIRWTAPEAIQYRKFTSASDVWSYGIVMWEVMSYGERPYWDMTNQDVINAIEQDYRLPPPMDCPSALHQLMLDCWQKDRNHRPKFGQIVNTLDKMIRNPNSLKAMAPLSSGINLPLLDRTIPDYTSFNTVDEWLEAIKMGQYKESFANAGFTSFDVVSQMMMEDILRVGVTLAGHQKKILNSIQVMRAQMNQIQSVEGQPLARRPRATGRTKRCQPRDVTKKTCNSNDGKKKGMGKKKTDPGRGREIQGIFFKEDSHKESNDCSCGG

[8] = target: Fes (UniProt P07332); assay: as above
Fes, sequence (P07332 whole entry, looked up): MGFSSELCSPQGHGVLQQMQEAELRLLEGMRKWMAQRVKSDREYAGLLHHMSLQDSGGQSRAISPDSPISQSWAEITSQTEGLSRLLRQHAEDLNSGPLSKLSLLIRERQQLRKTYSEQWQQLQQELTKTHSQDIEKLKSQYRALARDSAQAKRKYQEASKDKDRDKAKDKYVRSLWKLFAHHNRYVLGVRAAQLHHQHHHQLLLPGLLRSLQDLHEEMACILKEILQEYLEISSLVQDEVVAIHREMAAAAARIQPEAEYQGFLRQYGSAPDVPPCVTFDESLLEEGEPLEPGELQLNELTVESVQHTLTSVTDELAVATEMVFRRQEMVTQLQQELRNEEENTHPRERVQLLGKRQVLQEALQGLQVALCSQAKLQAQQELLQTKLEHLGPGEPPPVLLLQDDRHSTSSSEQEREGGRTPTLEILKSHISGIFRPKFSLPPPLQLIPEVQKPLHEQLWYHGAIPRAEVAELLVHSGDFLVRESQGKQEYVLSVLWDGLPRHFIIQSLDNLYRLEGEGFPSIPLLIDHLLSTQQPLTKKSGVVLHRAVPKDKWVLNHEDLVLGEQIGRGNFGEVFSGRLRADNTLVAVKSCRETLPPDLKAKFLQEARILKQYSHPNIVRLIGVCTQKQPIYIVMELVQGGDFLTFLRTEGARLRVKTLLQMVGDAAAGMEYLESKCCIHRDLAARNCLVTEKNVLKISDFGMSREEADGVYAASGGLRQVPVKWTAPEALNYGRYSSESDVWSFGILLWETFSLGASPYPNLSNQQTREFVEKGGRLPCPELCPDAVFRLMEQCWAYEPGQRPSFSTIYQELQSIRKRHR

[9] = system: Fer (mouse); assay: as above
[10] = target: FGFR3 (UniProt P22607); assay: as above
[11] = target: EPHB1 (UniProt P54762); assay: as above
EPHB1, sequence (P54762 whole entry, looked up): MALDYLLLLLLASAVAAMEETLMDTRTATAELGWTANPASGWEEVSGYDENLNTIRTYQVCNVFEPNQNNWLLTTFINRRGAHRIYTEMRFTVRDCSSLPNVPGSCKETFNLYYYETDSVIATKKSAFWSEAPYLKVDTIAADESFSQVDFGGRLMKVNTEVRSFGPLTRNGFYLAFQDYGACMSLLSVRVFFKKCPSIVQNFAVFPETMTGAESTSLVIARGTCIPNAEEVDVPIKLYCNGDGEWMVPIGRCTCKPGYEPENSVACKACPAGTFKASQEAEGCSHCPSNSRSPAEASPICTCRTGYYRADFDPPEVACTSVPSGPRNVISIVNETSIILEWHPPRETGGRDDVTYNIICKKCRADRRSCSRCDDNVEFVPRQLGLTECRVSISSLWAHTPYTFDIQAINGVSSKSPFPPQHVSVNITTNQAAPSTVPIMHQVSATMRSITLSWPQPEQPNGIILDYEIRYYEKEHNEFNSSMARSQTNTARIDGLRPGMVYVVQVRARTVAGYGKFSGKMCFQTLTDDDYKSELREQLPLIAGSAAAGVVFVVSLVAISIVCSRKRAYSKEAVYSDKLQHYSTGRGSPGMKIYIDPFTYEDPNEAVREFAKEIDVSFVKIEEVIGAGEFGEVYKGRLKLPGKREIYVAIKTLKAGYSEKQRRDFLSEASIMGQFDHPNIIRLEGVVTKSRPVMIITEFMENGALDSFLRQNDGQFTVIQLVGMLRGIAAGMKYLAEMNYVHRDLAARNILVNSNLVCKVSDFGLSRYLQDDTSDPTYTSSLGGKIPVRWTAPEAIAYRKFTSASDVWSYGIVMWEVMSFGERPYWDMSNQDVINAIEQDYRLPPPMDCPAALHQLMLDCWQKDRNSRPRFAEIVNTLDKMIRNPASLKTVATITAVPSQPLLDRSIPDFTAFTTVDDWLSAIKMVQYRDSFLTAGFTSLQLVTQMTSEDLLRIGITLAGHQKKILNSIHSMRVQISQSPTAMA

[12] = target: Hck (UniProt P08631); assay: as above
Hck, sequence (P08631 whole entry, looked up): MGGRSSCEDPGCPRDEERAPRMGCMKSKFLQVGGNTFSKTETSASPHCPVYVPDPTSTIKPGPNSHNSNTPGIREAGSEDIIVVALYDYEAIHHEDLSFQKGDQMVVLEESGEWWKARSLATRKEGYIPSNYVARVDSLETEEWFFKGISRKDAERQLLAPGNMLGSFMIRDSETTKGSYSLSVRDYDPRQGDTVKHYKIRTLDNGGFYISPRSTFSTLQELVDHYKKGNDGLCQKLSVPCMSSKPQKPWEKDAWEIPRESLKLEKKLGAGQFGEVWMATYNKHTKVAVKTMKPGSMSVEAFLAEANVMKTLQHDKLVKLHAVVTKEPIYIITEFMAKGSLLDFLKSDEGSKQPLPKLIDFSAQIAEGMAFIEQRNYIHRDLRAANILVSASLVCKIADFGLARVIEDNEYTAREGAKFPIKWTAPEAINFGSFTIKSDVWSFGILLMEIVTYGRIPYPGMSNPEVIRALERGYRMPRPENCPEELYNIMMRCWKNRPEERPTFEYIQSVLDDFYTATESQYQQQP

[13] = target: MERTK (UniProt Q12866); assay: as above
[14] = target: SHP2-C SH2; assay: SH2 binding enrichment of the phosphorylated peptide, bacterial display (enrichment ratio); higher = better substrate or ligand; peptides without Tyr show the background
[15] = target: Grb2 SH2 (UniProt P62993); assay: as above
[16] = target: c-Src SH2; assay: as above
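Throughout, for SH2 binding enrichment of the phosphorylated peptide, bacterial display: peptide library displayed on the E. coli surface as eCPX fusions, selected cells deep-sequenced, score is each peptide's frequency after selection divided by its frequency in the input.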
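Throughout, for phosphorylation enrichment, bacterial display: 11-residue human phosphosite peptides and single-mutation variants displayed on the E. coli surface, counted by deep sequencing, each peptide's frequency after selection divided by its frequency in the unselected input library; frequency after pTyr selection over input frequency; kinase dosed for 20-30% of maximal phosphorylation in three min.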

FGFR1, sequence (P11362 whole entry, looked up): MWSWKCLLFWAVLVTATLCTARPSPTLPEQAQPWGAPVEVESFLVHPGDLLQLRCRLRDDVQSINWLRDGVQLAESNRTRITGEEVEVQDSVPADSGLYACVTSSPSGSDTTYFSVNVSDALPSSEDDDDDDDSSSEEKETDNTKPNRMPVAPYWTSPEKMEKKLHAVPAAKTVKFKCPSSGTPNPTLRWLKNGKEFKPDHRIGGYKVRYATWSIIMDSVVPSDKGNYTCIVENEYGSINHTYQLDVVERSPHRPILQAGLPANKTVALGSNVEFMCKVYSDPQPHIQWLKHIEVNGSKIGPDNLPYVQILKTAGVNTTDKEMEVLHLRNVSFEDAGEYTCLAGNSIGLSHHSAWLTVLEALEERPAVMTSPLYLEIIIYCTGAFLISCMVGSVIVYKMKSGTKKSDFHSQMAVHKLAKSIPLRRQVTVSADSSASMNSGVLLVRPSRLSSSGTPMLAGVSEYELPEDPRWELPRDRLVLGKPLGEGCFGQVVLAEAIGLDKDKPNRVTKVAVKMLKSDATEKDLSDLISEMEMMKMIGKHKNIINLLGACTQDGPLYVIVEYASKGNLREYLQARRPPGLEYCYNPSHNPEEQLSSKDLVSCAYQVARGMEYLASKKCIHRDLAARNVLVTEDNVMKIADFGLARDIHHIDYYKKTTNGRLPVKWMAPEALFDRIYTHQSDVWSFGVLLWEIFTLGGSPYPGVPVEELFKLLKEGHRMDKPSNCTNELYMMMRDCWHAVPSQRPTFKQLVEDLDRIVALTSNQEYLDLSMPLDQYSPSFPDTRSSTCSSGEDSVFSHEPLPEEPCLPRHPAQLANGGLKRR

SH2 binding enrichment [14]	SH2 binding enrichment [15]	SH2 binding enrichment [16]	Sequence	phosphorylation enrichment [1]	phosphorylation enrichment [2]	phosphorylation enrichment [3]	phosphorylation enrichment [4]	phosphorylation enrichment [5]	phosphorylation enrichment [6]	phosphorylation enrichment [7]	phosphorylation enrichment [8]	phosphorylation enrichment [9]	phosphorylation enrichment [10]	phosphorylation enrichment [11]	phosphorylation enrichment [12]	phosphorylation enrichment [13]
0.883	0.949	0.656	FGISGYLVDSV [MAP2K3_Y214]	0.982	0.478	0.97	0.722	0.467	0.504	0.501	1.2	0.529	0.631	0.377	0.471	0.459
0.598	0.98	1.02	AGREEYSAMRD [KRAS_Y64_Q61R]	0.787	0.472	0.686	0.655	0.479	0.421	0.546	0.834	0.453	0.575	0.506	0.508	0.425
0.783	0.871	0.393	GGTTMYPGIAD [ACTC1_Y308]	0.854	0.451	0.766	0.561	0.493	0.484	0.419	0.722	0.408	0.576	0.424	0.437	0.418
0.612	0.768	0.395	NSRFTCKLEVK [USH2A_Y3747_Y3747C_YF]	1.45	0.563	1.79	1.48	0.378	0.504	0.618	1.66	0.533	1	0.629	0.508	0.449
1	1.04	0.541	EEQKRYFNAMK [SCN5A_Y1494_K1493R_YF]	0.591	0.49	0.673	0.446	0.348	0.435	0.445	0.645	0.424	0.46	0.353	0.451	0.41
1.14	1.28	0.882	SPPILYSFYLD [FCRL6_Y239]	1.31	1.42	0.775	0.736	2.03	2.74	4.22	1.05	1.37	0.924	3.28	1.57	8.22
2.05	1.99	1.41	RLLVVYPWTQR [HBB_Y36]	1.09	0.591	0.967	0.77	0.574	0.53	0.632	1.06	0.5	0.722	0.553	0.497	0.523
0.933	1.08	0.761	HHIDFYKETTN [FGFR1_Y654_K656E_YF]	1.07	1.02	0.938	0.575	1.27	0.541	2.44	2.36	0.889	1.14	1.5	1.64	0.556
0.577	0.82	0.646	ECKEAYHEGEC [PRKN_Y372]	1.32	0.626	1.18	0.761	0.48	0.541	0.638	1.26	0.498	0.652	0.524	0.654	0.456
0.769	0.865	0.674	EHAGEYGAEAL [HBA1_Y25_A20E]	0.832	0.595	0.693	0.612	0.489	0.468	0.543	0.896	0.427	0.681	0.423	0.592	0.455
0.618	0.992	0.512	FEEDSYVERSQ [RET_Y905_K907E_YF]	1.18	0.508	1.08	0.866	0.504	0.526	0.621	1.26	0.575	0.731	0.67	0.457	0.415
1.24	0.893	0.752	TFGQVYKGRHV [TNIK_Y40_YF]	0.524	0.347	0.598	0.555	0.39	0.437	0.367	0.545	0.33	0.368	0.401	0.406	0.34
1.21	0.853	0.369	QKNVSYVSRVS [TASOR_Y1043_T1046R]	1.2	0.782	0.69	0.547	0.438	0.457	0.564	0.739	0.764	0.894	0.683	0.477	0.537
0.816	0.821	0.661	DENWFYTRAAS [RPS19_Y54]	1.13	0.402	1.11	1.34	0.454	0.418	0.517	1.11	0.45	0.673	0.547	0.382	0.401
0.534	0.824	0.648	ESMQSYDLDFP [UNC13B_Y243_D238E_YF]	0.909	0.568	0.777	0.538	0.51	0.49	0.5	1.04	0.506	0.63	0.459	0.46	0.441
0.631	0.864	0.825	FAASSYSFSDL [EMD_Y59_S54F]	0.813	0.548	0.849	0.707	0.558	0.639	0.517	1.15	0.547	0.663	0.643	0.64	0.78
0.755	0.763	0.369	ARGMEYLASQK [FGFR2_Y616]	0.576	0.443	0.563	0.669	0.534	0.398	0.461	0.657	0.37	0.433	0.376	0.385	0.394
0.8	0.731	0.509	ILKPDYQPLAV [HYDIN_Y1072_I1077V]	0.817	0.475	0.617	0.73	0.48	0.418	0.42	0.828	0.387	0.667	0.409	0.456	0.448
0.589	0.923	0.465	REGKIYEFNQV [ZNF665_Y162_H157R_YF]	0.795	0.46	0.432	0.718	4.78	2.08	0.795	0.758	14.3	0.886	0.356	1.24	2.64
0.591	0.907	0.599	SLDLSYFHTSS [EMD_Y181_P183H_YF]	0.799	0.549	1.06	0.645	0.464	0.466	0.6	0.881	0.441	0.595	0.517	0.559	0.566
0.623	0.705	0.557	QFNIQYSSSAA [ERBB2IP_Y981_YF]	1.11	0.832	0.935	1.01	0.485	0.633	0.542	1.31	0.458	0.661	0.51	0.673	0.962
0.573	0.795	0.449	VHNLDYFKQTT [FGFR3_Y647_K650Q_YF]	0.767	0.743	1.31	0.602	0.652	0.542	0.545	0.958	0.48	0.819	0.56	0.525	0.434
0.445	0.635	0.458	VPVPGYTKLPE [SPRR3_Y146]	0.865	0.531	0.848	0.988	0.464	0.419	0.642	1.05	0.473	0.671	0.544	0.487	0.499
0.789	0.979	3.29	LEPHIYAVADV [MYO9A_Y216]	0.926	0.469	0.741	14.1	1.74	2.11	1.2	1.02	1.64	0.616	0.822	1.6	1.28
0.968	1.08	0.581	DPGVSYCTREE [PDHA1_Y301_R302C]	1.12	0.576	1.1	0.714	0.606	0.449	0.749	1.12	0.481	1.12	0.643	0.688	0.451
0.588	0.884	0.549	EEGNPYFSSTR [MCCC2_Y520_A524T_YF]	0.865	0.484	0.823	0.585	0.505	1.14	0.527	0.814	0.413	0.621	0.509	0.595	0.349
2.81	0.851	1.72	FGGTVYHSPVS [PRC1_Y511]	0.894	0.473	0.555	3.96	0.588	0.771	0.418	0.687	0.434	0.525	0.535	0.851	0.444
0.607	0.764	0.545	IDAVCYFRMEN [NPHS2_Y194_I192V_YF]	1.79	0.986	2.74	1.5	0.653	0.873	0.763	1.99	0.641	1.34	0.788	0.903	0.715
0.657	0.722	0.519	VSSPKYGSNDE [TMCC2_Y473_D476N]	0.867	0.406	0.857	0.801	0.445	0.514	0.536	0.912	0.509	0.619	0.452	0.426	0.454
